# Measured values reported in the supplement of paper PMC10567573.
# B1: IKZF1 (parent)
# chain: HIKLHSGEKPFKCHLCNYACRRRD
# Variants of: B1
# Test: protein stability index of a GFP-peptide fusion (GPS, HEK-293T) (PSI 1-6); higher = more stable
# Conditions: c terminus: a fixed tail appended
# 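Note: lentivirally expressed fusions sorted by FACS into six bins by GFP to DsRed ratio, PSI derived from sequencing read proportions per bin multiplied by bin number.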
row,Variant,protein stability index
1,YIKLHSGEKPFKCHLCNYACRRRD,1.95
2,WIKLHSGEKPFKCHLCNYACRRRD,1.93
3,RIKLHSGEKPFKCHLCNYACRRRD,2.13
4,LIKLHSGEKPFKCHLCNYACRRRD,2.04
5,CIKLHSGEKPFKCHLCNYACRRRD,1.83
6,AIKLHSGEKPFKCHLCNYACRRRD,1.05
7,HIKLHSGEKPPKCHLCNYACRRRD,1.67
8,HIKLHSGEKPKKCHLCNYACRRRD,2.6
9,HIKLHSGEKPTKCHLCNYACRRRD,1.85
10,HIKLHSGEKPSKCHLCNYACRRRD,1.64
11,HIKLHSGEKPCKCHLCNYACRRRD,1.83
12,HIKLHSGEKPMKCHLCNYACRRRD,2.21
13,HIKLHVGEKPFKCHLCNYACRRRD,1.16
14,HIKLHDGEKPFKCHLCNYACRRRD,1.97
15,HIKLHTGEKPFKCHLCNYACRRRD,1.99
16,HIKLHRGEKPFKCHLCNYACRRRD,2.24
17,HIKLHEGEKPFKCHLCNYACRRRD,3.3
18,HIKLHAGEKPFKCHLCNYACRRRD,1.65
19,HIKLHNGEKPFKCHLCNYACRRRD,3.35
20,HIKLHMGEKPFKCHLCNYACRRRD,2.13
21,HIKLHYGEKPFKCHLCNYACRRRD,1.79
22,HIKLHGGEKPFKCHLCNYACRRRD,2.02
23,HIKLHSGEKPFKCRLCNYACRRRD,2.26
24,HIKLHSGEKPFKCNLCNYACRRRD,1.69

row,Variant,protein stability index
1,HIKLHSGEKPFKCYLCNYACRRRD,1.45
2,HIKLHSGEKPFKCILCNYACRRRD,1.55
3,HIKLHSGEKPFKCWLCNYACRRRD,2.23
4,HIKLHSGEKPFKCALCNYACRRRD,1.5
5,HIKLHSGEKPFKCELCNYACRRRD,1.66
6,HIKLHSGEKPFKCQLCNYACRRRD,1.83
7,HIKLHSGEKPFKCKLCNYACRRRD,2.39
8,HIKLHSGEKPFKCHLDNYACRRRD,2.98
9,HIKLHSGEKPFKCHLENYACRRRD,3.02
10,HIKLHSGEKPFKCHLANYACRRRD,2.04
11,HIKLHSGEKPFKCHLGNYACRRRD,3.03
12,HIKLHSGEKPFKCHLFNYACRRRD,2.05
13,HIKLHSGEKPFKCHLVNYACRRRD,1.81
14,HIKLHSGEKPFKCHLLNYACRRRD,2.26
15,HIKLHSGEKPFKCHLTNYACRRRD,2.8
16,HIKLHSGEKPFKCHLHNYACRRRD,2.29
17,HIKLHSGEKPFKCHLYNYACRRRD,1.88
18,HIKLHSGEKPFKCHLCNYACRRRP,2.09
19,HIKLHSGEKPFKCHLCNYACRRRC,2.22
20,HIKLHSGEKPFKCHLCNYACRRRE,1.99
21,HIKLHSGEKPFKCHLCNYACRRRA,2.29
22,HIKLHSGEKPFKCHLCNYACRRRM,1.97
23,HIKLHSGEKPFKCHLCNYACRRRK,2.48
24,HIKLHSGVKPFKCHLCNYACRRRD,2.13

row,Variant,protein stability index
1,HIKLHSGSKPFKCHLCNYACRRRD,2.22
2,HIKLHSGHKPFKCHLCNYACRRRD,1.93
3,HIKLHSGDKPFKCHLCNYACRRRD,1.72
4,HIKLHSGPKPFKCHLCNYACRRRD,2.17
5,HIKLHSGNKPFKCHLCNYACRRRD,1.25
6,HIKLHSGFKPFKCHLCNYACRRRD,1.72
7,HIKLHSGAKPFKCHLCNYACRRRD,1.92
8,HIKLHSCEKPFKCHLCNYACRRRD,2.58
9,HIKLHSYEKPFKCHLCNYACRRRD,2.25
10,HIKLHSKEKPFKCHLCNYACRRRD,2.47
11,HIKLHSIEKPFKCHLCNYACRRRD,1.68
12,HIKLHSNEKPFKCHLCNYACRRRD,1.18
13,HIKLHSPEKPFKCHLCNYACRRRD,2.19
14,HIKLHSGEMPFKCHLCNYACRRRD,2.1
15,HIKLHSGECPFKCHLCNYACRRRD,2.79
16,HIKLHSGERPFKCHLCNYACRRRD,1.81
17,HIKLHSGELPFKCHLCNYACRRRD,1.86
18,HIKLHSGENPFKCHLCNYACRRRD,1.79
19,HIKLHSGEPPFKCHLCNYACRRRD,1.9
20,HIKLHSGEKPFKCHLCNYACRRKD,2.26
21,HIKLHSGEKPFKCHLCNYACRRED,1.8
22,HIKLHSGEKPFKCHLCNYACRRMD,2.4
23,HIKLHSGEKPFKCHLCNYACRRAD,2.13
24,HIKLHSGEKPFKCHLCNYACRRFD,2.36

row,Variant,protein stability index
1,HIKLHSGEKPFKCHLCNYACRRHD,2.12
2,HIKLHSGEKPFKCHLCNYACRRQD,1.71
3,HIKCHSGEKPFKCHLCNYACRRRD,2.33
4,HIKNHSGEKPFKCHLCNYACRRRD,1.87
5,HIKEHSGEKPFKCHLCNYACRRRD,3.72
6,HIKYHSGEKPFKCHLCNYACRRRD,2.52
7,HIKPHSGEKPFKCHLCNYACRRRD,2.19
8,HIKLHSGEKDFKCHLCNYACRRRD,2.14
9,HIKLHSGEKWFKCHLCNYACRRRD,2.31
10,HIKLHSGEKTFKCHLCNYACRRRD,1.84
11,HIKLHSGEKQFKCHLCNYACRRRD,1.43
12,HIKLHSGEKMFKCHLCNYACRRRD,1.58
13,HIKLHSGEKSFKCHLCNYACRRRD,1.75
14,HIKLHSGEKLFKCHLCNYACRRRD,1.76
15,HIKLHSGEKAFKCHLCNYACRRRD,1.55
16,HIKLHSGEKFFKCHLCNYACRRRD,1.91
17,HIKLHSGEKKFKCHLCNYACRRRD,2.73
18,HIKLHSGEKNFKCHLCNYACRRRD,2.16
19,HIKLHSGEKYFKCHLCNYACRRRD,2.88
20,HIKLHSGEKPFKCHLCNYAWRRRD,2.83
21,HIKLHSGEKPFKCHLCNYAERRRD,1.83
22,HIKLHSGEKPFKCHLCNYALRRRD,1.63
23,HIKLHSGEKPFKCHLCNYAFRRRD,2.25
24,HIKLHSGEKPFKCHLCNYACNRRD,1.65

row,Variant,protein stability index
1,HIKLHSGEKPFKCHLCNYACMRRD,1.79
2,HIKLHSGEKPFKCHLCNYACSRRD,1.99
3,HIKLHSGEKPFKCHLCNYACDRRD,1.29
4,HIKLHSGEKPFKCHLCNYACTRRD,2.38
5,HIKLHSGEKPFKCHLCNYACARRD,3.46
6,HIKLHSGEKPFKCHLCNYACPRRD,2.39
7,HIKLHSGEKPFKCHLCNYACRVRD,1.91
8,HIKLHSGEKPFKCHLCNYACRQRD,2.2
9,HIKLHSGEKPFKCHLCNYACRPRD,1.86
10,HIKLHSGEKPFKCHLCNYACRARD,1.68
11,HIKLHSGEKPFKCHLCNYACRCRD,1.87
12,HIKLHSGEKPFKCHLCNYACRTRD,2.5
13,HIKLHSGEKPFKCHLCNYACRYRD,2.05
14,HIKLHSGEKPFKCHLCNYACRIRD,1.7
15,HIKLHSGEKPFKCHLCNYACRNRD,1.2
16,HIKLHSGEKPFKQHLCNYACRRRD,2.75
17,HIKLHSGEKPFKKHLCNYACRRRD,3
18,HIKLHSGEKPFKPHLCNYACRRRD,2.97
19,HIKLHSGEKPFKGHLCNYACRRRD,3.04
20,HIKLHSGEKPFKRHLCNYACRRRD,2.26
21,HIKLHSGEKPFKAHLCNYACRRRD,2.28
22,HIKLDSGEKPFKCHLCNYACRRRD,2.12
23,HIKLISGEKPFKCHLCNYACRRRD,2.57
24,HIKLRSGEKPFKCHLCNYACRRRD,1.55

row,Variant,protein stability index
1,HIKLNSGEKPFKCHLCNYACRRRD,2.13
2,HIKLMSGEKPFKCHLCNYACRRRD,2.06
3,HIKLWSGEKPFKCHLCNYACRRRD,1.8
4,HIKLTSGEKPFKCHLCNYACRRRD,1.48
5,HPKLHSGEKPFKCHLCNYACRRRD,2.13
6,HSKLHSGEKPFKCHLCNYACRRRD,1.76
7,HCKLHSGEKPFKCHLCNYACRRRD,2.44
8,HDKLHSGEKPFKCHLCNYACRRRD,2.5
9,HWKLHSGEKPFKCHLCNYACRRRD,2.22
10,HMKLHSGEKPFKCHLCNYACRRRD,2.6
11,HVKLHSGEKPFKCHLCNYACRRRD,1.47
12,HTKLHSGEKPFKCHLCNYACRRRD,2.02
13,HYKLHSGEKPFKCHLCNYACRRRD,1.93
14,HIKLHSGEKPFKCHLCNYLCRRRD,2
15,HIKLHSGEKPFKCHLCNYSCRRRD,1.94
16,HIKLHSGEKPFKCHLCNYYCRRRD,1.32
17,HIKLHSGEKPFKCHLCNYTCRRRD,1.81
18,HIKLHSGEKPFKCHLCNYDCRRRD,1.58
19,HIKLHSGEKPFKCHLCNYCCRRRD,1.64
20,HIKLHSGEKPFKCHLCNMACRRRD,2.17
21,HIKLHSGEKPFKCHLCNWACRRRD,1.16
22,HIKLHSGEKPFKCHLCNAACRRRD,2.04
23,HIKLHSGEKPFKCHLCNPACRRRD,1.94
24,HIKLHSGEKPFKCHLCNLACRRRD,2.23

row,Variant,protein stability index
1,HIKLHSGEKPFKCHLCNQACRRRD,2.67
2,HIKLHSGEKPFKCHLCNGACRRRD,2.84
3,HIKLHSGEKPFKCHLCNIACRRRD,1.48
4,HINLHSGEKPFKCHLCNYACRRRD,2.11
5,HIELHSGEKPFKCHLCNYACRRRD,1.8
6,HIVLHSGEKPFKCHLCNYACRRRD,1.83
7,HISLHSGEKPFKCHLCNYACRRRD,1.91
8,HIQLHSGEKPFKCHLCNYACRRRD,2.03
9,HIPLHSGEKPFKCHLCNYACRRRD,3.67
10,HITLHSGEKPFKCHLCNYACRRRD,1.9
11,HIGLHSGEKPFKCHLCNYACRRRD,2.38
12,HIALHSGEKPFKCHLCNYACRRRD,1.58
13,HIDLHSGEKPFKCHLCNYACRRRD,1.95
14,HIHLHSGEKPFKCHLCNYACRRRD,2.44
15,HICLHSGEKPFKCHLCNYACRRRD,2.56
16,HIRLHSGEKPFKCHLCNYACRRRD,1.88
17,HIKLHSGEKPFLCHLCNYACRRRD,1.82
18,HIKLHSGEKPFWCHLCNYACRRRD,1.59
19,HIKLHSGEKPFACHLCNYACRRRD,1.77
20,HIKLHSGEKPFSCHLCNYACRRRD,1.95
21,HIKLHSGEKPFNCHLCNYACRRRD,1.67
22,HIKLHSGEKPFGCHLCNYACRRRD,2.38
23,HIKLHSGEKPFPCHLCNYACRRRD,1.78
24,HIKLHSGEKPFYCHLCNYACRRRD,2.13

row,Variant,protein stability index
1,HIKLHSGEKPFKCHLCGYACRRRD,2.05
2,HIKLHSGEKPFKCHLCLYACRRRD,2.07
3,HIKLHSGEKPFKCHLCAYACRRRD,2.67
4,HIKLHSGEKPFKCHLCDYACRRRD,1.47
5,HIKLHSGEKPFKCHLCIYACRRRD,2.86
6,HIKLHSGEKPFKCHLCHYACRRRD,1.98
7,HIKLHSGEKPFKCHLCYYACRRRD,1.52
8,HIKLHSGEKPFKCHLCPYACRRRD,1.56
9,HIKLHSGEKPFKCHLCRYACRRRD,1.53
10,HIKLHSGEKPFKCHLCQYACRRRD,1.43
11,HIKLHSGEKPFKCHECNYACRRRD,2.5
12,HIKLHSGEKPFKCHWCNYACRRRD,2.44
13,HIKLHSGEKPFKCHVCNYACRRRD,1.78
14,HIKLHSGEKPFKCHHCNYACRRRD,2.14
15,HIKLHSGEKPFKCHGCNYACRRRD,2.43
16,HIKLHSGEKPFKCHRCNYACRRRD,2.3
17,HIKLHSGEKPFKCHICNYACRRRD,2.44
18,HIKLHSGEKPFKCHQCNYACRRRD,2.47
19,HIKLHSGEKPFKCHPCNYACRRRD,2.64
20,HIKLHSGEKPFKCHFCNYACRRRD,1.89
